From publication PMC11614891, “Accurate de novo design of heterochiral protein–protein interactions” (Cell Research, 2024) come the findings set out here.

First the molecules themselves.
T1: D-TrkA (human, all residues D-amino acids (glycine achiral); biotin on the N-terminus; C-terminal amide)
T1 construct: also called mirror image of the D5 domain of human TrkA
T1 chain: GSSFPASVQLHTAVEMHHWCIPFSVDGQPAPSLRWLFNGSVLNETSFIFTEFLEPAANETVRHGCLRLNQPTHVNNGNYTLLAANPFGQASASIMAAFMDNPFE

T2: L-TrkA (human, biotinylated for BLI (site not stated))
T2 construct: also called D5 domain of human tropomyosin receptor kinase A
T2 chain: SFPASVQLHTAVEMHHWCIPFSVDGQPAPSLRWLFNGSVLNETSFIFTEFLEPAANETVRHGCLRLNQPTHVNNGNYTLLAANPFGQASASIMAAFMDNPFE

B1: D-25367-evo_(L-IL-6) (designed binder)
chain: G[dE][dE][dE][dV][dI][dE][dY][dL][dT][dR][dE][dF][dK][dD][dD][dP][dE][dL][dV][dR][dL][dL][dR][dE][dA][dI][dE]G[dL][dL][dK][dA]G[dE][dD][dP][dE][dI][dV][dE][dM][dL][dI][dE][dS][dL][dI][dH][dI][dT]G[dN][dP][dR][dV][dA][dV][dK][dL][dA][dK][dE][dY][dA]
notes: D-protein form of 25367-evo; source: chemically synthesized, folded
B2: D-25367_(L-IL-6) (designed binder)
chain: G[dE][dE][dE][dV][dK][dE][dY][dL][dT][dR][dK][dF][dK][dD][dD][dP][dE][dL][dV][dR][dL][dL][dR][dE][dA][dI][dE][dV][dL][dL][dK][dA]G[dE][dD][dP][dE][dL][dV][dL][dS][dL][dI][dE][dS][dL][dI][dH][dI][dT]G[dD][dP][dR][dA][dA][dV][dK][dL][dA][dK][dE][dF]G
notes: D-protein form of design 25367; source: chemically synthesized (Fmoc SPPS), folded by dialysis, purified by SEC
B3: L-Pep-1 (peptide)
peptide: DEHELLETAARWFYEIAKRA
modifications: also: biotinylated (site not given here)
notes: artificial amphipathic alpha-helical peptide
B4: L-25367_(D-IL-6) (designed binder)
chain: GEEEVKEYLTRKFKDDPELVRLLREAIEVLLKAGEDPELVLSLIESLIHITGDPRAAVKLAKEFG
notes: source: E. coli Lemo21(DE3), purified (Ni Sepharose, SEC)
B5: L-25367-evo_(D-IL-6) (designed binder)
chain: GEEEVIEYLTREFKDDPELVRLLREAIEGLLKAGEDPEIVEMLIESLIHITGNPRVAVKLAKEYA
notes: 25367-evo, evolved from design 25367 by directed evolution; the methods name only the three parents
B6: L-57445_(D-TrkA) (designed binder)
chain: STEELVEELLELARKDPQEARKLVEEIVKELGLSPERRFELQLAIVLAQRDPELARRILERALNH
notes: as for B4
B7: L-57445-evo_(D-TrkA) (designed binder)
chain: STQELVEELLELVRKDLEEARKLAKEIVKELGLSPELRFFLQLAIALAQRDPEVARRILERALNL
notes: the methods name only the three parents
B8: D-57445_(L-TrkA) (designed binder)
chain: [dS][dT][dE][dE][dL][dV][dE][dE][dL][dL][dE][dL][dA][dR][dK][dD][dP][dQ][dE][dA][dR][dK][dL][dV][dE][dE][dI][dV][dK][dE][dL]G[dL][dS][dP][dE][dR][dR][dF][dE][dL][dQ][dL][dA][dI][dV][dL][dA][dQ][dR][dD][dP][dE][dL][dA][dR][dR][dI][dL][dE][dR][dA][dL][dN][dH]
notes: source: chemically synthesized (Fmoc SPPS), folded by dialysis, purified by SEC
B9: D-19437_(L-Pep-1) (designed binder)
chain: G[dS][dL][dP][dV][dE][dK][dI][dI][dR][dE][dA][dK][dK][dI][dL][dD][dE][dL][dL][dK][dR]G[dL][dI][dD][dP][dE][dL][dA][dR][dI][dA][dR][dE][dV][dL][dE][dR][dA][dR][dK][dL]G[dN][dE][dE][dA][dA][dR][dF][dV][dL][dE][dL][dI][dE][dR][dL][dR][dR][dE][dL][dS]G[dS]G
notes: as for B8
B10: D-57445-evo_(L-TrkA) (designed binder)
chain: [dS][dT][dQ][dE][dL][dV][dE][dE][dL][dL][dE][dL][dV][dR][dK][dD][dL][dE][dE][dA][dR][dK][dL][dA][dK][dE][dI][dV][dK][dE][dL]G[dL][dS][dP][dE][dL][dR][dF][dF][dL][dQ][dL][dA][dI][dA][dL][dA][dQ][dR][dD][dP][dE][dV][dA][dR][dR][dI][dL][dE][dR][dA][dL][dN][dL]
notes: source: chemically synthesized, folded

Series [1] deals with T3, L-IL-6 (human, biotinylated for BLI (site not stated)).
T3 construct: additional methionine at the N-terminus; human interleukin-6, residues 28-212; also called human interleukin-6
T3 sequence (chain, as listed by the source): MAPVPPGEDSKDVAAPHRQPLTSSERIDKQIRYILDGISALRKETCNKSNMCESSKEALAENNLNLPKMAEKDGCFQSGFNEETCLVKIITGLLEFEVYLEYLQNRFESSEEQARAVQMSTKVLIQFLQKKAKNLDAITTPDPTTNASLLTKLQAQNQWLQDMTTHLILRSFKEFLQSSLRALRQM
Put plainly: BLI; Octet RED96e; biotinylated target immobilised on streptavidin biosensors, binder in solution; PBS pH 7.4 with 0.02% TWEEN; 25 °C; global fit. The conditions noted are these: both partners purified.

The target of series [2] is B9. The series is described as follows: ITC; MicroCal PEAQ-ITC, 19 injections; peptide titrated over the binder (L-19437 15 uM, D-Pep-1 150 uM); PBS pH 7.4; One Set of Sites mode. The conditions noted are these: both partners purified. (In general: Isothermal titration calorimetry measures the heat released or taken up as one component is titrated into another.)
The target of series [3] is T4, D-IL-6 (human, all residues D-amino acids (glycine achiral); biotin on the N-terminus; C-terminal amide).
T4 construct: additional methionine at the N-terminus (Met1 of the chain of 186 residues); human interleukin-6, residues 28-212, made of D-amino acids; also called mirror image of human interleukin-6
T4 sequence (chain, as listed by the source): as above
Put plainly: BLI; Octet RED96e; biotinylated target immobilised on streptavidin biosensors, binder in solution; PBS pH 7.4 with 0.02% TWEEN; 25 °C; global fit. The conditions noted are these: both partners purified. A general note: Biolayer interferometry detects binding as a change in optical thickness at a sensor tip.

In series [4] the target is T1, D-TrkA. Described as above. The conditions noted are these: both partners purified.
Series [5] addresses T1, D-TrkA. The series is described as above. The conditions noted are these: both partners purified.
Series [6] has as its target T2, L-TrkA. Described as above. The conditions noted are these: both partners purified.
Series [7] concerns the molecule itself. Put plainly: SEC; D-19437 alone on Superdex 75 Increase 10/300, compared with the mixture with L-Pep-1; fractions on SDS-PAGE, Coomassie blue.
For series [8], the target named is B3. Put plainly: BLI; Octet RED96e; biotinylated target immobilised on streptavidin biosensors, binder in solution; PBS pH 7.4 with 0.02% TWEEN; 25 °C; global fit. The conditions noted are these: both partners purified.
Series [9] concerns the target T2, L-TrkA. Put plainly: MST; Nanotemper Monolith NT.115; 50 nM L-TrkA, D-57445-evo in 16 two-fold dilutions from 122 pM to 40 uM; PBS with 0.05% Tween20, pH 7.4; MST power 40%. The conditions noted are these: both partners purified.

Several values for one entry are separate records, joined by “and”; a condition that tells them apart may be missing. Identical values can stand only once. Square brackets hold non-standard residues; d marks the D form. Ends that are not written are not given here.

In general, Kd refers to the free concentration of one partner at which half of the binding sites on the other are occupied at equilibrium, for simple one-to-one binding. A higher Kd goes with a looser complex. One may read the koff as a measure of how fast the partners let go of each other. Read a high koff as fast dissociation. Consider B1, for which, in [1], the dissociation constant Kd is 3.03 nM and 8.75 nM; the koff is 0.000328 s⁻¹ and 0.000199 s⁻¹.
As usually defined, the kon is a measure of how fast the partners come together. Higher therefore signals fast association. As for B2, in [1], the Kd is 28.3 nM and 48.3 nM; the koff was 0.0111 s⁻¹ and 0.0102 s⁻¹; the kon was 391000 M⁻¹ s⁻¹ and 211000 M⁻¹ s⁻¹.
A word on the stoichiometry N: it is a count of units in the complex or per binding partner. Consider B3, for which, in series [2], binding was put at a Kd of 12.4 ± 2.1 nM and the “stoichiometry N” value worked out at 0.932 ± 0.003 sites.
For B4, in [3], the Kd was 25.1 nM and 11.8 nM; the koff came out at 0.00758 s⁻¹; the kon was 302000 M⁻¹ s⁻¹ and 644000 M⁻¹ s⁻¹.
In the case of B5, in series [3], the Kd was 0.724 nM and 1.68 nM; the koff is 0.000185 s⁻¹ and 0.00046 s⁻¹; the kon was 256000 M⁻¹ s⁻¹ and 275000 M⁻¹ s⁻¹.
B6: in [4], the Kd came out at 152 nM, the koff is 0.0508 s⁻¹ and the on-rate constant (kon) turned out to be 334000 M⁻¹ s⁻¹.
Consider B7, for which the Kd in [5] is 7.84 ± 0.02 nM. In series [4], the Kd was 7.85 nM and 10.9 nM; the koff was 0.000297 s⁻¹ and 0.000322 s⁻¹; the kon was 37800 M⁻¹ s⁻¹ and 29400 M⁻¹ s⁻¹.
As to B8, in [6], binding was characterised by a dissociation constant (Kd) of 151 nM, the koff was determined as 0.0351 s⁻¹ and the kon amounted to 232000 M⁻¹ s⁻¹.
For the molecule B9, the “stoichiometry N” value in [7] was 2. Further, in series [8], the Kd is 59.6 nM and 37.6 nM; the koff was 0.0162 s⁻¹ and 0.0122 s⁻¹; the kon was 272000 M⁻¹ s⁻¹ and 324000 M⁻¹ s⁻¹.
As for B10, in series [9], the Kd was determined as 1.19 nM. In series [6], the equilibrium dissociation constant (Kd) was 1.73 nM and 1.8 nM; the koff was 0.000248 s⁻¹ and 0.000243 s⁻¹; the kon was 144000 M⁻¹ s⁻¹ and 135000 M⁻¹ s⁻¹.
